The values that follow come from patent publication EP4755449A2 (CHUGAI SEIYAKU KABUSHIKI KAISHA, dated 2026).

The target of assay [1] is T1, GST-hMSTN 61-160aa (human, UniProt O14793 61-160).
T1 construct: not shown: GST tag of pGEX4.1 vector
T1 sequence: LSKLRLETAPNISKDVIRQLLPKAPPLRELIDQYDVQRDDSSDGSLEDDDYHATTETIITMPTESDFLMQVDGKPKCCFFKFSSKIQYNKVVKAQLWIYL
Kind of assay: Western blot. In general terms: In western blotting, separated proteins are transferred to a membrane and probed.

Assay [2] has as its target T2, GST-hMSTN 81-180aa (human, UniProt A1C2U3 81-180 (Pongo pygmaeus entry)).
T2 construct: not shown: GST tag of pGEX4.1 vector
T2 sequence: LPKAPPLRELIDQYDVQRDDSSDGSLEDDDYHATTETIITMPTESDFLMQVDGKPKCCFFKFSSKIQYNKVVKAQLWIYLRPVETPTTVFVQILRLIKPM
Put plainly: Western blot.

The target of assay [3] is T3, GST-hMSTN 141-241aa (human, UniProt A1C2U3 141-241 (Pongo pygmaeus entry)).
T3 construct: not shown: GST tag of pGEX4.1 vector
T3 sequence: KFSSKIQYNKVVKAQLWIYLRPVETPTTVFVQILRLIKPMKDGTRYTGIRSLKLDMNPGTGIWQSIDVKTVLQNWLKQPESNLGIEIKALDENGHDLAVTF
Put plainly: Western blot.

Assay [4] deals with T4, GST-hMSTN 101-200aa (human, UniProt A1C2U3 101-200 (Pongo pygmaeus entry)).
T4 construct: not shown: GST tag of pGEX4.1 vector
T4 sequence: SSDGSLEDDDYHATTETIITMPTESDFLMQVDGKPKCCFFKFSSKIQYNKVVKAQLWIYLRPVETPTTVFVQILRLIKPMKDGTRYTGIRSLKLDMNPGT
Kind of assay: Western blot.

The target in assay [5] is T5, GST-hMSTN 121-220aa (human, UniProt A1C2U3 121-220 (Pongo pygmaeus entry)).
T5 construct: not shown: GST tag of pGEX4.1 vector
T5 sequence: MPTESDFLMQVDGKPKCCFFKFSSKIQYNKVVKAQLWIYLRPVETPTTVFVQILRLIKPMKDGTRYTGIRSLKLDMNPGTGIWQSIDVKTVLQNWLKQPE
Kind of assay: Western blot.

Assay [6] addresses T6, human Fc gamma RIIb on MDCK cells (human, UniProt P31994 43-310).
T6 sequence (looked up): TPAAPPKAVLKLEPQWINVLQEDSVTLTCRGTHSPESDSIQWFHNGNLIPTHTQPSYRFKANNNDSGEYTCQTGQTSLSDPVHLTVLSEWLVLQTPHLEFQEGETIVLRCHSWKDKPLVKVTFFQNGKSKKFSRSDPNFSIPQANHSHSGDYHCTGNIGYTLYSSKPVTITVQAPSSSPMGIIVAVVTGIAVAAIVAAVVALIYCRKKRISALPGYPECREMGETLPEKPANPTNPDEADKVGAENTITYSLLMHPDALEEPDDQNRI
Put plainly: cell-based or functional assay.

In assay [7] the target is T7, human Fc gamma RIIb extracellular domain, His-tagged (human, UniProt P31994 43-217).
T7 construct: also called FcgRIIb
T7 sequence: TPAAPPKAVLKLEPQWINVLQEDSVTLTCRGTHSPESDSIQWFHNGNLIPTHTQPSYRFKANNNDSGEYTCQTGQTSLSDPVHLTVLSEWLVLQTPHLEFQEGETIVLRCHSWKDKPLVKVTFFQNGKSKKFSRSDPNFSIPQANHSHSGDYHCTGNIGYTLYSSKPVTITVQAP
Put plainly: SPR 25C.

The target in assay [8] is T8, cyno Fc gamma RIIIaS extracellular domain, His-tagged (cynomolgus monkey, UniProt Q8SPW2 21-206 at identity 1.00)).
T8 construct: also called cynoFcgRIIIaS
T8 chain: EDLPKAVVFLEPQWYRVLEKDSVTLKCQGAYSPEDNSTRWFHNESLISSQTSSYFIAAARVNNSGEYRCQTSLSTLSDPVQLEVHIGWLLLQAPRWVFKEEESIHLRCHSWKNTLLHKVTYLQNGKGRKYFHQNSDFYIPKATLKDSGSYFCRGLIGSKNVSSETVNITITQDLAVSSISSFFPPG
Kind of assay: SPR 25C.

For assay [9], the target named is T9, human Fc gamma RIIaH extracellular domain, His-tagged (human, UniProt P12318 34-217).
T9 construct: also called FcgRIIaH; human Fc gamma RIIa (type H)
T9 sequence: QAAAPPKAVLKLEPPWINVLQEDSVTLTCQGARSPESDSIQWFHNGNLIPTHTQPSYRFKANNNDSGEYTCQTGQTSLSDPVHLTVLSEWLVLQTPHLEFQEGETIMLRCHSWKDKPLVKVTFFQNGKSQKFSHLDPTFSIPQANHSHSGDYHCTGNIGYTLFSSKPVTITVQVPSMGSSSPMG
Put plainly: SPR 25C.

Assay [10] deals with T10, cynomolgus monkey latent myostatin (cynomolgus monkey, UniProt Q95J86 25-266; Q95J86 267-375, limits assumed).
T10 construct: also called cyno latent myostatin
T10 sequence 1: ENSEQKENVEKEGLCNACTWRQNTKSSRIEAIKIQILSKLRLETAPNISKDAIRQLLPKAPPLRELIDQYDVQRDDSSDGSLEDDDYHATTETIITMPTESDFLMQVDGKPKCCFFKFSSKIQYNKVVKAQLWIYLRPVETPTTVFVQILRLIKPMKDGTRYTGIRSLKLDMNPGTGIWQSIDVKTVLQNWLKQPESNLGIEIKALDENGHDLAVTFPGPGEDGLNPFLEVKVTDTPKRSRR
T10 sequence 2: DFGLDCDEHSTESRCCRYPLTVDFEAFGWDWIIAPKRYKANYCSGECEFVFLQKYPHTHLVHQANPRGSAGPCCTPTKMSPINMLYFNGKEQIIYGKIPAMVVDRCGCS
Put plainly: SPR 37C pH7.4; pH 7.4.

In assay [11] the target is T10, cynomolgus monkey latent myostatin. Kind of assay: SPR 37C.
Assay [12] addresses T11, human latent myostatin (human, UniProt O14793 25-266; O14793 267-375).
T11 construct: non-covalent complex of two propeptides and the mature homodimer; also called human myostatin latent form
T11 sequence 1: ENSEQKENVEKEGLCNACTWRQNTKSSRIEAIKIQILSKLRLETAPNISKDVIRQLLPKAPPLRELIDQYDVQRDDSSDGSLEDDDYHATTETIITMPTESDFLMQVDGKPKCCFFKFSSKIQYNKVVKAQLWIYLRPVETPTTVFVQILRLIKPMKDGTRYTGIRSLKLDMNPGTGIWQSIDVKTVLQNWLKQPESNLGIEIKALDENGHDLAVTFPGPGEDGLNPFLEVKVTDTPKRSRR
T11 sequence 2: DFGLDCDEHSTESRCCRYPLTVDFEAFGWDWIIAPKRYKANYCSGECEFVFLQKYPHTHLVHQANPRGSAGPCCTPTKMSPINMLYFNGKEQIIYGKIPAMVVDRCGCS
Kind of assay: SPR 37C pH7.4.

The target of assay [13] is T12, mouse latent myostatin (mouse, UniProt O08689 26-267; O08689 268-376).
T12 sequence 1: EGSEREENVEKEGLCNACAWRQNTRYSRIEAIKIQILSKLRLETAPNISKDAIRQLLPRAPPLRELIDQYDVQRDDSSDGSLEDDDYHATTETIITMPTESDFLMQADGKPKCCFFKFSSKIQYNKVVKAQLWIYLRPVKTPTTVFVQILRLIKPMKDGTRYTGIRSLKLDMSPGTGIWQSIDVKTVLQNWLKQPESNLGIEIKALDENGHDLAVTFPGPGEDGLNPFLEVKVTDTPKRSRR
T12 sequence 2: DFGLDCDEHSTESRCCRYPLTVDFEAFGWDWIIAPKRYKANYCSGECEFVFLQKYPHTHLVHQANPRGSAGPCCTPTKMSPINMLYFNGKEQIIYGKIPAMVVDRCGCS
Put plainly: SPR 37C pH7.4.

In assay [14] the target is T10, cynomolgus monkey latent myostatin. Kind of assay: SPR 37C pH5.8; pH 5.8.

B1: MST1572 (antibody, human IgG1, kappa, V domains shown)
VH: QSVEESGGRLVTPGTPLTLTCTVSGFSLSSYAMSWVRQAPGKGLEWIGIIYGVGSTYYASWAKGRFTISKTSTTVDLKIASPTTEDTATYFCARDDYGWGYTNLWGPGTLVTVSS
VL: QVLTQTPSSVSAAVGGTVTINCQSSQSVYNNNYLAWFQQKPGQPPKLLIYDASKLASGVPSRFKGSGSGTQFTLTISGVQCDDAATYYCQGSYYSSGWYRAFGGGTKVEIKR
For B1, the binding result in assay [1], in assay [2], in [3], in assay [4] and in [5] was “no binding” each time.

B2: MS103240H795-TT14/M103202L1045-SK1 (antibody, human IgG1, kappa)
heavy: QVQLVESGGGLVQPGGSLRLSCAVSGIDLSHDDISWVRQAPGKGLEWVSIISYAGSTYYASWAKGRLTISKDTSKNQVVLTMTNMDPVDTATYYCARGVPAYSHGGDLWGQGTLVTVSSASTKGPSVFPLAPSSKSTSGGTAALGCLVKDYFPEPVTVSWNSGALTSGVHTFPAVLQSSGLYSLSSVVTVPSSSLGTQTYICNVNHKPSNTKVDKKVEPKSCDKTHTCPPCPAPEYLGGDSVFLFPPKPKDVLMISRTPEVTCVVIDVSHEDPEVKFNWYVDGVEVHNAKTKPREEQYNSTYRVVSVLPVLHQDWLNGKEYKCKVSNKALPKPIEKTISKAKGQPREPQVYTLPPSREEMTKNQVSLTCLVKGFYPSDIAVEWESNGQPENNYKTTPPVLDSDGSFFLYSKLTVDKSRWQQGNVFSCSVMHEALHNHYTQKSLSLSP
light: DIVMTQSPATLSLSPGERATLSCTTSQSVYHENWLSWFQQKPGQPPKLLIYWASTLAYGVPSRFSGSGSGTDFTLTISSLQPEDAATYYCAGGYGGGRYAFGQGTKVEIKRTVAAPSVFIFPPSDEQLKSGTASVVCLLNNFYPREAKVQWKVDNALQSGNSQESVTEQDSKDSTYSLSSTLTLSKADYEKHKVYACEVTHQGLSSPVTKSFNRGEC
In the case of B2, the “antigen fluorescence intensity inside cells (uptake of antigen-antibody complex)” value in [6] was 7.5 fold of SG1.

B3: MS103240H795-TT33/M103202L1045-SK1 (antibody, human IgG1, kappa)
heavy: QVQLVESGGGLVQPGGSLRLSCAVSGIDLSHDDISWVRQAPGKGLEWVSIISYAGSTYYASWAKGRLTISKDTSKNQVVLTMTNMDPVDTATYYCARGVPAYSHGGDLWGQGTLVTVSSASTKGPSVFPLAPSSKSTSGGTAALGCLVKDYFPEPVTVSWNSGALTSGVHTFPAVLQSSGLYSLSSVVTVPSSSLGTQTYICNVNHKPSNTKVDKKVEPKSCDKTHTCPPCPAPEYLGGDSVFLFPPKPKDVLMISRTPEVTCVVIDVSHEDPEVKFNWYVDGVEVHNAKTKPREEQYNSTYRVVSVLPVLHRDWLNGKEYKCKVSNKALPKPIEKTISKAKGQPREPQVYTLPPSREEMTKNQVSLTCLVKGFYPSDIAVEWESNGQPENNYKTTPPVLDSDGSFFLYSKLTVKKSRWQQGNVFSCSVMHEALHNHYTQKSLSLSP
light: DIVMTQSPATLSLSPGERATLSCTTSQSVYHENWLSWFQQKPGQPPKLLIYWASTLAYGVPSRFSGSGSGTDFTLTISSLQPEDAATYYCAGGYGGGRYAFGQGTKVEIKRTVAAPSVFIFPPSDEQLKSGTASVVCLLNNFYPREAKVQWKVDNALQSGNSQESVTEQDSKDSTYSLSSTLTLSKADYEKHKVYACEVTHQGLSSPVTKSFNRGEC
For the molecule B3, the “antigen antibody uptake into the cells” value in [6] was 36 fold of SG1.

B4: M103205H795-MY009/M103202L889-SK1 (antibody, human IgG1, kappa)
heavy: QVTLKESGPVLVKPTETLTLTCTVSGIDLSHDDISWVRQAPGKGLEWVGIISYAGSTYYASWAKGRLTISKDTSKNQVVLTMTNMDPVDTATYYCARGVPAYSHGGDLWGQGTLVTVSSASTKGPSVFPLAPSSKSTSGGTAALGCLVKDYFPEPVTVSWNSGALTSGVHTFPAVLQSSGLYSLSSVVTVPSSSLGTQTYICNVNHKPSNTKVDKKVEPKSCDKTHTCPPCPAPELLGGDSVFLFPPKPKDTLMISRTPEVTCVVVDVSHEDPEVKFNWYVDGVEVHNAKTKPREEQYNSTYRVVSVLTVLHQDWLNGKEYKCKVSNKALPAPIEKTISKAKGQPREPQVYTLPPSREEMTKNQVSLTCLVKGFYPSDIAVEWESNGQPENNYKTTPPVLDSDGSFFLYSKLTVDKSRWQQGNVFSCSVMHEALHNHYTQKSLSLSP
light: DIVMTQSPATLSLSPGERATLSCTSSQSVYHANWLSWFQQKPGQPPKLLIYWASTLAYGVPSRFSGSGSGTDFTLTISSLQPEDAATYYCAGGYGGGRYAFGQGTKVEIKRTVAAPSVFIFPPSDEQLKSGTASVVCLLNNFYPREAKVQWKVDNALQSGNSQESVTEQDSKDSTYSLSSTLTLSKADYEKHKVYACEVTHQGLSSPVTKSFNRGEC
notes: SG1 with P238D (EU); also called MS1032LO06-MY009; copies: 2 + 2
For B4, the binding result in [7], in assay [8] and in assay [9] was “binds” in each case.

B5: MS_M103205H1186-SG1/M103202L889-SK1 (antibody, human IgG1, kappa, V domains shown)
VH: QVTLKESGPVLVKPTETLTLTCTVSGIDLSHDDISWVRQAPGKGLEWVGIISYAGKKYYASWAKGRLTISKDTSKNQVVLTMTNMDPVDTATYYCARGVPAYSHGGDLWGQGTLVTVSS
VL: DIVMTQSPATLSLSPGERATLSCTSSQSVYHANWLSWFQQKPGQPPKLLIYWASTLAYGVPSRFSGSGSGTDFTLTISSLQPEDAATYYCAGGYGGGRYAFGQGTKVEIKR
notes: also called MS1032LO18-SG1
The term Kd denotes the concentration at which binding is half-saturated. Turning to B5, the Kd was 0.354 nM in assay [10], 0.329 nM in assay [12], 0.272 nM in assay [13] and 80.9 nM in assay [14]. Moreover, in assay [11], the “ratio of KD at pH 5.8/pH7.4” value was found to be 229.

B6: MST1538 (antibody, human IgG1, kappa, V domains shown)
VH: QSLEESGGGLVKPGGTLTLTCKASGIDFSSYYYMCWVRQAPGKGLEWIACIYAGISGSTYYASWAKGRFTISKTSSTTVTLQMTSLTAADTATYFCARDPYHFDYGSLWGPGTLVTVSS
VL: ALVMTQTPASVSAAVGGTVTINCQASQSVYGGNELSWYQQEPGQPPKLLIYSASKLASGVPSRFKGSGSGTQFTLTISGVQCDDAAAYYCAGYRTYSDDDNAFGGGTKVEIKR
As to B6, the binding result in assay [1], in assay [2], in assay [3], in assay [4] and in assay [5] was “no binding” throughout.
